13 molecules from publication PMC10636324 (Proceedings of the National Academy of Sciences of the …, 2023) can be followed below.

B1: GST-TBC1D23^514-558 F537L (domain or fragment, human, UniProt Q9NUY8-2 514-558, looked up)
chain: TPVDRHVSSSDRVGKPYRGVKPVLSIGDEEEYDTDEIDSSSMSDD
B2: GST-TBC1D23^514-558 V533I (domain or fragment, human, UniProt Q9NUY8-2 514-558, looked up)
chain: TPVDRHVSSSDRVGKPYRGIKPVFSIGDEEEYDTDEIDSSSMSDD
B3: GST-TBC1D23^514-558 wild type (domain or fragment, human, UniProt Q9NUY8-2 514-558, looked up)
chain: TPVDRHVSSSDRVGKPYRGVKPVFSIGDEEEYDTDEIDSSSMSDD
B4: GST-TBC1D23^514-558 R531C (domain or fragment, human, UniProt Q9NUY8-2 514-558, looked up)
chain: TPVDRHVSSSDRVGKPYCGVKPVFSIGDEEEYDTDEIDSSSMSDD
B5: GST-TBC1D23^514-558 T514A (domain or fragment, human, UniProt Q9NUY8-2 514-558, looked up)
chain: APVDRHVSSSDRVGKPYRGVKPVFSIGDEEEYDTDEIDSSSMSDD
B6: GST-TBC1D23^514-558 R518Q (domain or fragment, human, UniProt Q9NUY8-2 514-558, looked up)
chain: TPVDQHVSSSDRVGKPYRGVKPVFSIGDEEEYDTDEIDSSSMSDD
B7: GST-TBC1D23^514-558 K534N (domain or fragment, human, UniProt Q9NUY8-2 514-558, looked up)
chain: TPVDRHVSSSDRVGKPYRGVNPVFSIGDEEEYDTDEIDSSSMSDD
B8: GST-TBC1D23^514-558 P529A (domain or fragment, human, UniProt Q9NUY8-2 514-558, looked up)
chain: TPVDRHVSSSDRVGKAYRGVKPVFSIGDEEEYDTDEIDSSSMSDD
B9: GST-TBC1D23^514-558 R531H (domain or fragment, human, UniProt Q9NUY8-2 514-558, looked up)
chain: TPVDRHVSSSDRVGKPYHGVKPVFSIGDEEEYDTDEIDSSSMSDD
B10: TBC1D23^514-538 wild type (peptide, UniProt Q9NUY8-2 514-538, looked up)
peptide: TPVDRHVSSSDRVGKPYRGVKPVFS
B11: TBC1D23^514-538 R531H (peptide, UniProt Q9NUY8-2 514-538, looked up)
peptide: TPVDRHVSSSDRVGKPYHGVKPVFS
B12: TBC1D23^514-538 R531C (peptide, UniProt Q9NUY8-2 514-538, looked up)
peptide: TPVDRHVSSSDRVGKPYCGVKPVFS
B13: TBC1D23^514-538 F537L (peptide, UniProt Q9NUY8-2 514-538, looked up)
peptide: TPVDRHVSSSDRVGKPYRGVKPVLS

For the first experiment, the target named is T1, FAM91A1^N (N terminus of FAM91A1, residues 1-328), wild type (UniProt Q658Y4 1-328).
T1 sequence (looked up): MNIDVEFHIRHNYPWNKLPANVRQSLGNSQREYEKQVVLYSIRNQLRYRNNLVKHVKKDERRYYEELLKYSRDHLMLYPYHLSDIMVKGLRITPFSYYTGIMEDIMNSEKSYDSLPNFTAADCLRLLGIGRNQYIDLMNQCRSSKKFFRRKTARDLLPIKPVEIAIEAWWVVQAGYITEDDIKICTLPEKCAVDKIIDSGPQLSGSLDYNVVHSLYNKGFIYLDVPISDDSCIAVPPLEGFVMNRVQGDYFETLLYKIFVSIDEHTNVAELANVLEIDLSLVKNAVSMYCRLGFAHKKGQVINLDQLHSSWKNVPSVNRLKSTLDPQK
In words: pull-down.
On to B1, for which the binding result was “binds”.

With B2, the binding result is “binds”.

On to B3, for which the binding result is given as “binds”.

With B4, the binding result is “binds”.

Consider B5, for which the binding result is “binds”.

For the molecule B6, the binding result is listed as “binds”.

As to B7, the binding result was “binds”.

In the case of B8, the binding result is “binds”.

Regarding B9, the binding result was “binds”.

For a further experiment, the target named is T1, FAM91A1^N (N terminus of FAM91A1, …). In words: ITC.
B10 gave a Kd of 1150 ± 160 nM.

On to B11, for which the “affinity as percent of that of WT” value is roughly 7.9%.

Regarding B12, the “affinity as percent of that of WT” value is roughly 6.6%.

B13: the “affinity as percent of that of WT” value was roughly 16.4%.
